Assay results from patent US7038112B2, “Fatty acid elongases” (Miami University, priority 1997, dated 2006).
Where two headings read alike, the source gives them in different places.

Tests used:
[1] = In vitro fatty acid elongation assay with yeast microsomes, 18:0 acyl-CoA substrate; type: biochemical, Saccharomyces cerevisiae; conditions: for (%) 20:0 acyl CoA / (%) 22:0 acyl CoA / (%) 24:0 acyl CoA / (%) 26:0 acyl CoA / (%) Total / Rate, 20:0 acyl CoA / Rate, 22:0 acyl CoA / Rate, 24:0 acyl CoA / Rate, 26:0 acyl CoA / Rate, Total: second experiment
Description: (§1) Transformed yeast cells were grown in the presence of either glucose or galactose (2% w/v) as described in Example 1. Cells were harvested by centrifugation at 5000×g for 10 min and washed with 10 ml ice cold isolation buffer (IB), which contains 80 mM Hepes-KOH, pH 7.2, 5 mM EGTA, 5 mM EDTA, 10 mM KC1, 320 mM sucrose and 2 mM DTT). Cells were then resuspended in enough IB to fill a 1.7 ml tube containing 700 μl of 0.5 μm glass beads and yeast microsomes were isolated from the cells essentially as described in Tillman, T. and Bell, R., J. Biol. Chem. 261:9144–9149 (1986). The microsomal membrane pellet was recovered by centrifugation at 252,000×g for 60 min. The pellet was rinsed by resuspending in 40 ml fresh IB and again recovered by centrifugation at 252000×g for 60 min. Microsomal pellets were resuspended in a minimal volume of IB, and the protein concentration adjusted to 2.5 μg μl^−1 by addition of IB containing 15% glycerol. Microsomes were frozen on dry ice and stored at −80° C. The protein concentration in microsomes was determined by the Bradford method (Bradford, 1976).
(§2) Fatty acid elongase activity was measured essentially as described in Hlousek-Radojcic, A. et al., Plant J. 8:803–809 (1995). Briefly, the standard elongation reaction mix contained 80 mM Hepes-KOH, pH 7.2, 20 mM MgCl2, 500 μM NADPH, 1 mM ATP, 100 μM malonyl-CoA, 10 μM CoA-SH and 15 μM radioactive acyl-CoA substrate. The radiolabeled substrate was either [1^−14C]18:1-CoA (50 uCi μmol^−1), [1^−14C]18:0-CoA (55 uCi μmol^−1), or [1^−14C]16:0-CoA (54 uCi μmol^−1). The reaction was initiated by the addition of yeast microsomes (5 μg protein) and the mixture incubated at 30° C. for the indicated period of time. The final reaction volume was 25 μl.
(§3) Methyl esters of the acyl-CoA elongation products were prepared as described in Example 1. Methyl esters were separated on reversed phase silica gel KC18 TLC plates (Whatman, […] thick), quantified by phosphorimaging, and analyzed on by ImageQuant software (Molecular Dynamics, Inc., Sunnyvale, Calif.). The detection limit for each product is about 0.001 nanomoles per min. per mg microsomal protein, depending on the phosphorimage exposure time.
(§4) Yeast cultures containing full-length EL1 in λYES and full-length EL2 in pYEUra3 were grown in the presence of galactose or glucose as described in Example 2. Microsomes were then prepared from each of the cultures and fatty acid elongation assays were carried out as described in Example 2.
(§5) In the first experiment, microsomes were prepared from galactose-induced cultures of EL1, EL2 and FAE1, and incubated with either [1-^14C] 18:0 acyl-CoA or [1-^14C] 18:1 acyl-CoA as substrate. The amounts of various reaction products synthesized after 30 minutes (min) were determined as described in Example 2.
In a second experiment, microsomes were prepared from galactose-induced and from glucose-repressed yeast cultures containing EL1 or EL2 coding sequences. The microsomal preparations were incubated with either 18:0 acyl-CoA or 18:1 acyl-CoA as substrate and the fatty acid reaction products determined as described above. […]

[2] = type: biochemical, Saccharomyces cerevisiae; conditions: for (%) 20:1 acyl CoA / (%) 22:1 acyl CoA / (%) 24:1 acyl CoA / (%) 26:1 acyl CoA / (%) Total / Rate, 20:1 acyl CoA / Rate, 22:1 acyl CoA / Rate, 24:1 acyl CoA / Rate, 26:1 acyl CoA / Rate, Total: second experiment
Description: as §1, §2, §3, §4, §5
In a second experiment, microsomes were prepared from galactose-induced and from glucose-repressed yeast cultures containing EL1 or EL2 coding sequences. The microsomal preparations were incubated with either 18:0 acyl-CoA or 18:1 acyl-CoA as substrate and the fatty acid reaction products determined as described above.

[3] = 18:0-CoA substrate, +Galactose (induced)
[4] = 18:0-CoA substrate, +Glucose (uninduced)
[5] = 18:0-CoA substrate, galactose-induced, 30 min, first experiment
[6] = +Gal, standard reaction mix, average of two experiments
[7] = +Glu, standard reaction mix, one experiment
[8] = galactose-induced, −A&C (ATP and Coenzyme A omitted), average of two experiments
[9] = galactose-induced, −ATP, average of two experiments
[10] = galactose-induced, −CoA, average of two experiments
[11] = 18:1-CoA substrate, +Galactose (induced)
[12] = 18:1-CoA substrate, +Glucose (uninduced)
[13] = 18:1-CoA substrate, galactose-induced, 30 min, first experiment

B1: EL2: Arabidopsis β-keto acyl synthase gene product (SEQ ID NO:4) expressed in yeast microsomes (protein, listed as Arabidopsis thaliana)
chain: MDYPMKKVKIFFNYLMAHRFKLCFLPLMVAIAVEASRLSTQDLQNFYLYLQNNHTSLTMFFLYLALGSTLYLMTRPKPVYLVDFSCYLPPSHLKASTQRIMQHVRLVREAGAWKQESDYLMDFCEKILERSGLGQETYVPEGLQTLPLQQNLAVSRIETEEVIIGAVDNLFRNTGISPSDIGILVVNSSTFNPTPSLSSILVNKFKLRDNIKSLNLGGMGCSAGVIAIDAAKSLLQVHRNTYALVVSTENITQNLYMGNNKSMLVTNCLFRIGGAAILLSNRSIDRKRAKYELVHTVRVHTGADDRSYECATQEEDEDGIVGVSLSKNLPMVAARTLKINIATLGPLVLPISEKFHFFVRFVKKKFLNPKLKHYIPDFKLAFEHFCIHAGGRALIDEMEKNLHLTPLDVEASRMTLHRFGNTSSSSIWYELAYTEAKGRMTKGDRIWQIALGSGFKCNSSVWVALRNVKPSTNNPWEQCLHKYPVEIDIDLKE
In the case of B1, the “(%) 20:0 acyl CoA” value [1, 3] is reported as 43.1%, the “(%) 22:0 acyl CoA” value [1, 3] is reported as 17.8% and the “(%) 24:0 acyl CoA” value [1, 3] is reported as 19.1%. The “(%) 26:0 acyl CoA” value [1, 3] was 20.0%, the “(%) Total” value [1, 3] was 100.0% and the “Rate, 20:0 acyl CoA” value [1, 3] was 0.107 Nanomoles/minute/mg of microsomal protein. For the same molecule, the “Rate, 22:0 acyl CoA” value [1, 3] was 0.044 Nanomoles/minute/mg of microsomal protein, the “Rate, 24:0 acyl CoA” value [1, 3] was 0.048 Nanomoles/minute/mg of microsomal protein and the “Rate, 26:0 acyl CoA” value [1, 3] was 0.050 Nanomoles/minute/mg of microsomal protein. The “Rate, Total” value [1, 3] was 0.249 Nanomoles/minute/mg of microsomal protein, the “(%) 20:0 acyl CoA” value [1, 4] was 81.3% and the “(%) 22:0 acyl CoA” value [1, 4] was 5.1%. For the same molecule, the “(%) 24:0 acyl CoA” value [1, 4] was 13.6%, the “(%) 26:0 acyl CoA” value [1, 4] was 0.0% and the “(%) Total” value [1, 4] was 100.0%. The “Rate, 20:0 acyl CoA” value [1, 4] was 0.030 Nanomoles/minute/mg of microsomal protein, the “Rate, 22:0 acyl CoA” value [1, 4] was 0.002 Nanomoles/minute/mg of microsomal protein and the “Rate, 24:0 acyl CoA” value [1, 4] was 0.005 Nanomoles/minute/mg of microsomal protein. The “Rate, 26:0 acyl CoA” value [1, 4] was 0.000 Nanomoles/minute/mg of microsomal protein, the “Rate, Total” value [1, 4] was 0.037 Nanomoles/minute/mg of microsomal protein and the “effect of omission of ATP and/or CoA on overall amounts of VLCFAs synthesized” value ([1]; 18:0-CoA substrate, galactose-induced) was “does not have a significant effect”. For the same molecule, the “(%) 20:0 acyl-CoA product” value [1, 5] was 41.8%, the “(%) 22:0 acyl-CoA product” value [1, 5] was 20.7% and the “(%) 24:0 acyl-CoA product” value [1, 5] was 20.3%. The “(%) 26:0 acyl-CoA product” value [1, 5] was 17.2%, the “(%) Total acyl-CoA products” value [1, 5] was 100.0% and the “Rate, 20:0 acyl-CoA product” value [1, 5] was 0.108 Nanomoles/minute/mg of microsomal protein. For the same molecule, the “Rate, 22:0 acyl-CoA product” value [1, 5] was 0.053 Nanomoles/minute/mg of microsomal protein, the “Rate, 24:0 acyl-CoA product” value [1, 5] was 0.052 Nanomoles/minute/mg of microsomal protein and the “Rate, 26:0 acyl-CoA product” value [1, 5] was 0.044 Nanomoles/minute/mg of microsomal protein. The “Rate, Total acyl-CoA products” value [1, 5] was 0.258 Nanomoles/minute/mg of microsomal protein, the “20:0 product as a percent of total products formed” value (shortened to “20:0 product as a percent”) [1, 6] was 47.1% and the “22:0 product as a percent of total products formed” value (“22:0 product as a percent” for short) [1, 6] was 19.1%. The “24:0 product as a percent of total products formed” value (“24:0 product as a percent” below) [1, 6] was 19.4%, the “26:0 product as a percent of total products formed” value (shortened to “26:0 product as a percent”) [1, 6] was 14.5% and the “Total products as a percent of total products formed” value (“Total products as a percent” for short) [1, 6] was 100.0%. For the same molecule, the “20:0 product as a percent” value [1, 7] was 54.5%, the “22:0 product as a percent” value [1, 7] was 17.1% and the “24:0 product as a percent” value [1, 7] was 5.8%. The “26:0 product as a percent” value [1, 7] was 22.6%, the “Total products as a percent” value [1, 7] was 100.0% and the “increase in overall elongase activity on induction with galactose, 18:0 acyl CoA substrate” value ([1]; galactose-induced vs glucose) was ~7 fold. The “20:0 product as a percent” value [1, 8] was 38.0%, the “22:0 product as a percent” value [1, 8] was 15.9% and the “24:0 product as a percent” value [1, 8] was 18.4%. The “26:0 product as a percent” value [1, 8] was 27.8%, the “Total products as a percent” value [1, 8] was 100.0% and the “20:0 product as a percent” value [1, 9] was 34.1%. For the same molecule, the “22:0 product as a percent” value [1, 9] was 16.4%, the “24:0 product as a percent” value [1, 9] was 20.8% and the “26:0 product as a percent” value [1, 9] was 28.9%. The “Total products as a percent” value [1, 9] was 100.0%, the “20:0 product as a percent” value [1, 10] was 45.3% and the “22:0 product as a percent” value [1, 10] was 19.2%. The “24:0 product as a percent” value [1, 10] was 19.9%, the “26:0 product as a percent” value [1, 10] was 15.8% and the “Total products as a percent” value [1, 10] was 100.0%. The “18:0-CoA elongation activity, +Glu” value ([1]; microsomes from glucose-grown cultures, standard reaction mix) was “.033 nanomoles/minute/mg of microsomal protein”, the “increase in 18:1 CoA elongation, microsomes from induced vs uninduced cells” value [2] was ~2 fold and the “(%) 20:1 acyl CoA” value [2, 11] was 100.0%. The “(%) 22:1 acyl CoA” value [2, 11] was 0.0%, the “(%) 24:1 acyl CoA” value [2, 11] was 0.0% and the “(%) 26:1 acyl CoA” value [2, 11] was 0.0%. The “(%) Total” value [2, 11] was 100.0%, the “Rate, 20:1 acyl CoA” value [2, 11] was 0.089 Nanomoles/minute/mg of microsomal protein and the “Rate, 22:1 acyl CoA” value [2, 11] was 0.000 Nanomoles/minute/mg of microsomal protein. For the same molecule, the “Rate, 24:1 acyl CoA” value [2, 11] was 0.000 Nanomoles/minute/mg of microsomal protein, the “Rate, 26:1 acyl CoA” value [2, 11] was 0.000 Nanomoles/minute/mg of microsomal protein and the “Rate, Total” value [2, 11] was 0.089 Nanomoles/minute/mg of microsomal protein. The “(%) 20:1 acyl CoA” value [2, 12] was 100.0%, the “(%) 22:1 acyl CoA” value [2, 12] was 0.0% and the “(%) 24:1 acyl CoA” value [2, 12] was 0.0%. For the same molecule, the “(%) 26:1 acyl CoA” value [2, 12] was 0.0%, the “(%) Total” value [2, 12] was 100.0% and the “Rate, 20:1 acyl CoA” value [2, 12] was 0.043 Nanomoles/minute/mg of microsomal protein. The “Rate, 22:1 acyl CoA” value [2, 12] was 0.000 Nanomoles/minute/mg of microsomal protein, the “Rate, 24:1 acyl CoA” value [2, 12] was 0.000 Nanomoles/minute/mg of microsomal protein and the “Rate, 26:1 acyl CoA” value [2, 12] was 0.000 Nanomoles/minute/mg of microsomal protein. For the same molecule, the “Rate, Total” value [2, 12] was 0.043 Nanomoles/minute/mg of microsomal protein, the “(%) 20:1 acyl-CoA product” value [2, 13] was 84.1% and the “(%) 22:1 acyl-CoA product” value [2, 13] was 15.9%. The “(%) 24:1 acyl-CoA product” value [2, 13] was 0.0%, the “(%) 26:1 acyl-CoA product” value [2, 13] was 0.0% and the “(%) Total acyl-CoA products” value [2, 13] was 100.0%. For the same molecule, the “Rate, 20:1 acyl-CoA product” value [2, 13] was 0.091 Nanomoles/minute/mg of microsomal protein, the “Rate, 22:1 acyl-CoA product” value [2, 13] was 0.017 Nanomoles/minute/mg of microsomal protein and the “Rate, 24:1 acyl-CoA product” value [2, 13] was 0.0 Nanomoles/minute/mg of microsomal protein. For the same molecule, the “Rate, 26:1 acyl-CoA product” value [2, 13] was 0.0 Nanomoles/minute/mg of microsomal protein and the “Rate, Total acyl-CoA products” value [2, 13] was 0.108 Nanomoles/minute/mg of microsomal protein.
